Experiments:
DGAT activity = experiment: Substrate preference of recombinant TmDGAT1 expressed in yeast H1246MATα; format: biochemical, Tropaeolum majus
Method: FIG. 8. Expression of TmDGAT1 in yeast mutant H1246 MATα. DGAT assays were performed on cell lysates of yeast quadruple mutant (DGAT-, PDAT-, ASAT1^−, ASAT2^−) strain:H1246 MATα transformed with pYES2.1/V5-His-TOPO plasmid only (Control) and TmDGAT1/pYES2.1 in the presence of ^14C-labeled 16:0-, 18:0-, 18:1-, eicosenoyl-(20:1 Δ11) and 22:1 acyl-CoAs and sn-1,2-diolein (18:1 DAG) or sn-1,2-dierucin (22:1 DAG). The enzyme activity is scarcely detected in the yeast strain harboring the empty control vector, and has been subtracted from the enzyme activities detected from the H1246MATα strain expressing the TmDGAT1.
The TmDGAT1 ORF (SEQ. ID. NO: 2) in pYES2.1/V5-His-TOPO plasmid was transformed into a quadruple yeast mutant H1246MATα (Sandager et al, 2002) using the S.c. EasyComp™ transformation Kit (Invitrogen). Yeast cells transformed with pYES2.1/V5-His-TOPO plasmid only were used as a control. Transformants were selected by growth on synthetic complete medium lacking uracil (SC-ura), supplemented with 2% (w/v) glucose. The colonies were transferred into liquid SC-ura with 2% (w/v) glucose and grown at 28° C. overnight. The overnight cultures were diluted to an OD of 0.4 in induction medium (SC-ura+2% Galactose+1% Raffinose), and were induced for 24-36 hours at 28° C. Cells were collected and broken using glass beads. The crude protein concentration in the lysates was normalized using the Biorad assay based on the method of (Bradford, 1976) and assayed for DGAT activity. DGAT assays were conducted at pH 7.4, with shaking at 100 rev/min in a water bath at 30° C. for 60 min. […] The ^14C-labelled TAGs were isolated and counted as described above for insect cell expression.
H1246MATα yeast cells harboring an empty pYES2.1 vector plasmid were used as a control. […] In both cases, the lowest level of TAG was detected when using the saturated 16:0-acyl-CoA. […]

[1] = system: B. napus HEAR breeding line 2026; experiment: Over-expression of TmDGAT1 in B. napus HEAR breeding line 2026; format: in vivo, Brassica napus
Source text: FIG. 12. Over expression of the TmDGAT1 in B. napus High erucic acid rapeseed breeding line 2026 (courtesy of Dr. P. B. E. McVetty, University of Manitoba). Effect of transformation of B. napus with the TmDGAT1 cDNA under control of the napin promoter on (A) oil content (as percentage of mature seed dry weight), (B) Total oil/100 seeds, (C) Relative net oil content (with the control average set at 100%). T1 seeds of B. napus plasmid-only control transgenic lines (napin:pSE; black bar) and napin:TmDGAT1 transgenic lines (hatched bars) are shown ±SE.
The final binary vector (napin/DGAT/nos) was verified and electroporated into Agrobacterium tumefaciens cells strain GV3101 containing helper plasmid pMP90 (Koncz and Schell, 1986). Plasmid integrity was verified by DNA sequencing following its re-isolation from A. tumefaciens and transformation into E. coli.
Arabidopsis thaliana (ecotype Columbia) WT and mutant line AS11 (Katavic et al., 1995; Zou et al, 1999) were transformed by a vacuum infiltration method (Clough and Bent, 1998). B. napus HEAR breeding line 2026 (courtesy of Dr. P. B. E. McVetty, University of Manitoba) was transformed utilizing hypocotyl explants and a modified method of DeBlock et al., 1998. Modifications of the hypocotyl explant transformation method were described previously (Zou et al., 1997).
Total lipid extracts (TLEs) were prepared as described above, and lipid class analyses, determination of oil content and composition in all seed lines from WT and the AS11 transgenic plants and in nasturtium seed were performed as described previously (Taylor et al., 1991; 1992 a & b; Zou et al., 1997; Jako et al., 2001). In all cases, the data represent the averages of three to five determinations. Intact-seed transmethylation followed by gas chromatography (GC) analysis provided equally reproducible analyses of Arabidopsis seed oil as reported by Li et al., (2006). […]

[2] = acceptor sn-1,2-diolein or sn-1,2-dierucin

B1: TmDGAT1: Tropaeolum majus acyl-CoA-dependent diacylglycerol acyltransferase 1, 518 amino acids (SEQ ID NO: 3), encoded by ORF SEQ ID NO: 2 (protein, listed as Tropaeolum majus)
chain: MAVAESSQNTTTMSGHGDSDLNNFRRRKPSSSVIEPSSSGFTSTNGVPATGHVAENRDQDRVGAMENATGSVNLIGNGGGVVIGNEEKQVGETDIRFTYRPSFPAHRRVRESPLSSDAIFKQSHAGLFNLCIVVLIAVNSRLIIENLMKYGWLIDTGFWFSSRSLGDWSIFMCCLTLPIFPLAAFIVEKLVQRNHISELVAVLLHVIVSTAAVLYPVIVILTCDSVYMSGVVLMLFGCIMWLKLVSYAHTSSDIRTLAKSGYKGDAHPNSTIVSCSYDVSLKSLAYFMVAPTLCYQPSYPRSSCIRKGWVVRQFVKLIVFIGLMGFIIEQYINPIVRNSKHPLKGDFLYAIERVLKLSVPNLYVWLCMFYSFFHLWLNILAELLRFGDREFYKDWWNAKTVAEYWKMWNMPVHRWMVRHLYFPCLRNGIPKEGAIIIAFLVSGAFHELCIAVPCHVFKLWAFIGIMFQVPLVLITNYLQEKFSNSMVGNMIFWFIFCILGQPMCVLLYYHDLINLKEK
DGAT activity using 20:1-CoA compared to 18:1-CoA (DGAT activity; [2]): about 2 fold | DGAT activity using 22:1-CoA compared to 18:1-CoA (DGAT activity; [2]): ~3 fold | activity with radiolabeled free fatty acids as acyl donors (DGAT activity; data not shown): no activity | oil content increase ([1]; T1 generation compared to average pSE plasmid-only control lines): 3.5-4.5% | increase in oil content on a per 100-seed basis ([1]; T1 seeds): 20 to 30 mg | net overall oil increase ([1]; T1 seeds compared with average of pSE controls): ≤ 15%
